From the nanobody polyreactivity screen of Harvey et al. (2022)

Experiment: yeast display, Sf9 membrane polyspecificity reagent, FACS + sequencing; frameworks hold sequencing errors
Outline: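 Galactose induction of a Saccharomyces cerevisiae BJ5465 synthetic nanobody display library ran 36–48 hours. The cells were then stained for 1 hour at 4 °C with 10% biotinylated, detergent-solubilized Sf9 membrane reagent, pulled down on streptavidin microbeads and FACS-sorted into low and high (top ~1%) gates on expression and reagent-binding fluorescence. Labels for polyreactivity follow the gate of origin.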

Sequence	polyreactivity (PSR sort gate)
QVQLVESGGGLVQAGGSLRLSCAASGSIFYHYAMGWYRQAPGKERELVAAISRSGGRTYYADSVKGRFTISRDNAKNTVYLQMNSLKPEDTAVYYCNKDYYYPNSWPKYDYWGQGTQVTVSS	low polyreactivity
QVQLVESGGGLVQAGGSLRLSCAASGSIFYHYAMGWYRQAPGKERELVATINWSGGSTYYADSVKGRFTISRDNAKNTVYLQMNSLKPEDTAVYYCYSDSAIGLYVSSTPYGYDYWGQGTQVTVSS	low polyreactivity
QVQLVESGGGLVQAGGSLRLSCAASGSIFYINAMVWYRPAPGTERELLAAITSGGTYYADSVKGRFTISRDNAKNTVYLQMNSLKPEDTAVDYCAADREGTPLFDYWGQGTQVTVSS	low polyreactivity
QVQLVESGGGLVQAGGSLRLSCAASGSIFYKNAMGWYRQAPGKERELVAVISTSGSTYYADSVKGRFTISRDNAKNTVYLQMKSLKPEDTAVYYCATKVRRWYSARSPNVRFDYWGQGTQVTVSS	high polyreactivity
QVQLVESGGGLVQAGGSLRLSCAASGSIFYKYAMGWYRQAPGKEREFVAAITGSGVRTYYADSVKGRFTISRDNAKNTVYLQMNRLKPDDTAVYYCAASSYGYDYWGQGTQVTVSS	high polyreactivity
QVQLVESGGGLVQAGGSLRLSCAASGSIFYKYAMGWYRQAPGKERELVASITSGGITNYADSVKGRFTISRDNAKNTVFLQMNSLKPEDTAVYYCNAANPYRRVGSFTYKYDYWGQGTQVTVSS	low polyreactivity
QVQLVESGGGLVQAGGSLRLSCAASGSIFYKYAMGWYRQARGKERELVAAINRGVSTYYADSVKGRFTISRDNAKNTVYLQLTSLKPEDTAVYYCNADSTELRGYYYWGLGTQVTVSS	low polyreactivity
QVQLVESGGGLVQAGGSLRLSCAASGSIFYKYVMGWYRQAPGKERELVAAISRGGGSTYYADSVKGRFTISRDNAKNSVYLQMNSLKPEDTAVYYCNAVGRPRYGHGFDHWGQGTQETVSS	high polyreactivity
QVQLVESGGGLVQAGGSLRLSCAASGSIFYLNAMGWYRQAPGKERELVATISNGGSTNYADSVKGRFTISRDNAKNTVYLQMNSLKPEDTAVYYCAAASGGTVVGEGDYWGQGTQVTVSS	low polyreactivity
QVQLVESGGGLVQAGGSLRLSCAASGSIFYLNAMGWYRQAPGQERELVASISNGGSTNYADSVKGRFTISRDNAKHTVYLQMNSLKPEVTAVYYCAADYVVSAFDYWGQGTQLTVSS	low polyreactivity
QVQLVESGGGLVQAGGSLRLSCAASGSIFYLYALGWYRQAPGKERELVAAISSSGGRTYYADSVKGRFTISRDNAKNTVYLQMNSLKPEDTAVYYCAARYWAKYSYGYWGQGTQVTVSS	high polyreactivity
QVQLVESGGGLVQAGGSLRLSCAASGSIFYLYAMGWYRQAPGKERELVADITITGGSTYYADSVKGRFTISRDNAKNTVYLQMNSLKPEDTAVYYCAADEFWFTYRYDYWGQGTQVTVSS	high polyreactivity
QVQLVESGGGLVQAGGSLRLSCAASGSIFYLYAMGWYRQAPGKERELVATISLSSGSTYADSVKGRFTISRDNAKNTVYLQMNSLKPDDTAVYYCAKDLSRWGYNEYDYWGQGTQVTLSS	low polyreactivity
QVQLVESGGGLVQAGGSLRLSCAASGSIFYLYTMGWYRQAPGKERELVAAITSGGSTNYADSVKGRFTISRDNAKNTVYLQMNSLKPEDTAVYYCAAEYFDWWVTYDYWGQGTQVTVSS	high polyreactivity
QVQLVESGGGLVQAGGSLRLSCAASGSIFYNNAMGWYRQAPGKERELVAAITIGGSTNYADSVKGRFTISRDNAKNTVYLQMNSLKPEDTAVYYCAAGKPGAYRYGSIVRFDHWGQGTQVTVSS	low polyreactivity
QVQLVESGGGLVQAGGSLRLSCAASGSIFYNNVMGWYRQAPGKERELVAVISGGGSTNYADSVKGRFTISRDNAKNTDYLQMNSLKPEDTAVYYCAARGRYSYGDRYEYWGQGTQVTVSS	low polyreactivity
QVQLVESGGGLVQAGGSLRLSCAASGSIFYPYAMGWYRQAPGKERELVAAISYSGGSTYYADSVKGSFTISRDNAKNTVYLQMNSLKPEDTAVYYCNRRYWRRPYYKYDYWGQGTQVTVSS	high polyreactivity
QVQLVESGGGLVQAGGSLRLSCAASGSIFYPYAMGWYRQAPGKERELVARIRGTGGRTYYADSVKGRFTISRDNAKNTVYLQMNSLKPEDTAVYYCNAQTSGRVGSQYYSYYGSWGQGTQLTVSS	high polyreactivity
QVQLVESGGGLVQAGGSLRLSCAASGSIFYPYAMGWYRQAPGKERELVATINEDGGSTYYADSVKGRFTISRDNAKNTVYLQMNSLKPEDTAVYYCNTDHFEDYHTDFWSDYEYWGQGTQVTVSS	low polyreactivity
QVQLVESGGGLVQAGGSLRLSCAASGSIFYPYAMGWYRQAPGKERELVATISSGVNTNYADSVKGRFTISRDNAKNTVYLQMNSLKPVDTAVYYCAARFRHSFRRGGGYNYDYWGQGTQVTVSS	high polyreactivity
QVQLVESGGGLVQAGGSLRLSCAASGSIFYQYAMGWYRQAPGTERELVAAITWIGSPNYADSVKGRFTISRDNAKNTVYLQMNSLKPEDTAVYYCNTDPYVLQKYDYWGQGTQVTVSS	low polyreactivity
QVQLVESGGGLVQAGGSLRLSCAASGSIFYRITMGWYRQAPGKERELVAAISTNGGSTYYADSVKGRFTISRDNAKNSVYLQMNSLKPEDTAVYYCAADLRRSDYDYWGQGTQVTVSS	high polyreactivity

Sequence	polyreactivity (PSR sort gate)
QVQLVESGGGLVQAGGSLRLSCAASGSIFYRNAMGWSRQPPGKERELVAGITTRGGSTYYADSVKGRFTISRDNAKNTVYLQMNSLKPEDTAVYYCAAVPYSRYSSSRGYWGQGTQVTVSS	high polyreactivity
QVQLVESGGGLVQAGGSLRLSCAASGSIFYRNAMGWYIQAPGKERELVAAISRRGGITYYADSVKGRFTISRDNAKNTVYLQMNSLKPEDTAVYYCYTDTGGMDYWGQGTQVTVSS	high polyreactivity
QVQLVESGGGLVQAGGSLRLSCAASGSIFYRNAMGWYRPAPGKERELVAAISSDGSTNYADSVKGRFTISRDNAKNTVYLQMNSLKPEDTAVYYCAVDRYRYPFDYWGQGTQVTVSS	low polyreactivity
QVQLVESGGGLVQAGGSLRLSCAASGSIFYRNAMGWYRQAPGKERELVATITVNGGRTYYADSVKGRFTISRDNANNTVYLQMNSLKPEDTAVYDCAKDVHRWDPYDYWGQGTQVTVSS	low polyreactivity
QVQLVESGGGLVQAGGSLRLSCAASGSIFYRNTMGWYRQAPGKERELVAGITGNGGRTYYADSVKGRFTISRDNAKNTVYLQMNSQKPEDTAVYYCAAGTWTWYRYYYWGQGTQVTVSS	high polyreactivity
QVQLVESGGGLVQAGGSLRLSCAASGSIFYRYAMGWYRQAPGKERELFATITQSGVSTYYADSVKGRFTISRDNAKNTVFLQRISLKPEDTAVYYCAASYYYTIGPYLRKFDWGQGTQVTVSS	low polyreactivity
QVQLVESGGGLVQAGGSLRLSCAASGSIFYRYAMGWYRQAPGKERELVAAINWSGGSTYYADSVKGGFTISRDNAKNTVYLQMNTLKPEDTAVYYCAARLYWRRYDYWGQGTQVTVSS	high polyreactivity
QVQLVESGGGLVQAGGSLRLSCAASGSIFYRYAMGWYRQAPGKERELVAAIRWSGGSTYYADSVKGRFTISRDNAKNTVYLQMNSLKPEDTAVYYCATEVSSGGYWSWYGYWGQGTQVTVSS	low polyreactivity
QVQLVESGGGLVQAGGSLRLSCAASGSIFYRYAMGWYRQAPGKERELVAAISRSGGRTYYADSVKGRFTISRDNAKNTVYLQMNSLKPEDTAVYYCAAESTVGTDLGGDSWGQGTQVTVSS	high polyreactivity
QVQLVESGGGLVQAGGSLRLSCAASGSIFYRYAMGWYRQAPGKERELVAAISSGSSTHYADSVKGRFTISRDNAKNTVYLQMNSLKPEDTAVYYCAARYRAFTSTRRFDYWGQGTQVTVSS	high polyreactivity
QVQLVESGGGLVQAGGSLRLSCAASGSIFYRYAMGWYRQAPGKERELVAAISSRGGSTNYADSVKGRFTISRDNAKNTVYLQMNSLKPEDTAVYYCAAGWNYLRQFNFNYWGQGTQVTVSS	high polyreactivity
QVQLVESGGGLVQAGGSLRLSCAASGSIFYRYAMGWYRQAPGKERELVADISSGGGTSYADSVKGRFTISRDNAKNTVYLQMNSLKPEDTAVYYCAAELYYWTYVRFDYWGQGTQVTVSS	low polyreactivity
QVQLVESGGGLVQAGGSLRLSCAASGSIFYSNAKGWYRQAPGKERELVATITWSGGRTYYADSVKGRFTISRDNAKNTVYLQMNILKPEDTAVYYCAAVSIYWGQGTQVTVSS	low polyreactivity
QVQLVESGGGLVQAGGSLRLSCAASGSIFYSNAMGWYRQAAGKERELVAAISVSGVSTYYADSVKGRFTISRDTAKNTVYLQMNSLKPEDTAVYYCAADTGYRYDDYYWWGGEYDYWGQGTQVTVSS	low polyreactivity
QVQLVESGGGLVQAGGSLRLSCAASGSIFYSNAMGWYRQAPGKERELVAAINWRGGSTYYADSVKGRFTISRDYAKNTVYLQMNSLKPEDTAVYYCNADSYDEIKYGYWGQGTQVTVSS	low polyreactivity
QVQLVESGGGLVQAGGSLRLSCAASGSIFYSNAMGWYRQAPGKERELVAAISVSGVTTYYADSVKGRFTISRDNAKNTVYLQMNSLKPEDTAVYYCAADTGYRYDDYYWWGGEYDYWGQGTQVTVSS	low polyreactivity
QVQLVESGGGLVQAGGSLRLSCAASGSIFYSNAMGWYRQAPGKERELVAAITRRGGSTYYADSVKGRFTISRDNAKNTVYLQMNSLKPEDTAVYYCAARYYRRFAHYGEYGYWGQGTQVTVSS	high polyreactivity
QVQLVESGGGLVQAGGSLRLSCAASGSIFYSNAMGWYRQAPGKERELVAAITRRGGSTYYADSVKGRFTISRDNAKNTVYLQMNSLKPEDTAVYYCNRDPDIYIGYDYWGQGTQVTVSS	high polyreactivity
QVQLVESGGGLVQAGGSLRLSCAASGSIFYSNAMGWYRQAPGKERELVAAITWSGGSTYYADSVKGRFTISRDNAKNTVYLQMNSLKPEDTAVYYCNARRNVRQTFGYEYWGQGTQVTVSS	high polyreactivity
QVQLVESGGGLVQAGGSLRLSCAASGSIFYSNAMGWYRQAPGKERELVARITWSGGSTYYADSVKGRFTISRDNAKNTVYLQMNSLKPEDTAVYYCNKVIFRYFTTRPTRTYEYWGQGTQVTVSS	low polyreactivity
QVQLVESGGGLVQAGGSLRLSCAASGSIFYSNAMGWYRQAPGKERELVATIRSGGTTYYADSVKGRFTISRDNAKNTVYLQMNSLKPEDTAVYYCAKRYGVKYWGQGTQVTVSS	high polyreactivity
